In test [1] the target is Human infectious Norovirus (genotype GII-4). The test can be described thus: BLI, antibody and Con A each immobilized on ARG2 chips, same concentration of Norovirus.
For test [2] the target is unchanged. The test can be described thus: Norovirus captured on Con A-bound sepharose 4B resin, Ct values by RT-PCR.
The target in a further test is Hepatitis A virus (HAV). The test can be described thus: cell-based or functional assay.
Another test deals with Rotavirus. The test can be described thus: cell-based or functional assay.

In test [1], “concanavalin A (Con A, sigma) (from UniProt P02866 30-281)” yielded a fold stronger binding than the antibody of 3 fold. Besides, the collection rate in test [2] was found to be 94.1%. For the same substance, the concentration of HAV (copy number by RT-PCR) in FRhk-4 cells, Con A plus HAV group with Hepatitis A virus (HAV) is 27000 unit. Also, the concentration of Rotavirus (copy number by RT-PCR) in MA-104 cells, Con A plus Rotavirus group with Rotavirus worked out at 64000 unit.

The values are drawn from patent publication US20170285011A1.
